The record followed here is the Human Domainome abundance scans (Beltran et al. 2025).

B1: Protein S100-G, residues 1 to 79; numbered along this chain, P02633 (parent)
chain: MSAKKSPEELKGIFEKYAAKEGDPNQLSKEELKLLLQTEFPSLLKGPSTLDELFEELDKNGDGEVSFEEFQVLVKKISQ

± gives the uncertainty stated by the source.

The series covers variants of B1. The series is described as follows: abundance fitness (aPCA) (normalised: wild type 0, dead -1); higher = more abundant; growth selection in yeast, the domain comes from the species named. The following applies: Bos taurus.
On to MSAKKSPEELKGIFEKYAAKNGDPNQLSKEELKLLLQTEFPSLLKGPSTLDELFEELDKNGDGEVSFEEFQVLVKKISQ [E21N], for which the abundance fitness was 0.039 ± 0.081.

As to MSAKKSPEELKGIFEKYAAKGGDPNQLSKEELKLLLQTEFPSLLKGPSTLDELFEELDKNGDGEVSFEEFQVLVKKISQ [E21G], the abundance fitness was -0.034 ± 0.08.

For the variant MSAKKSPEELKGIFEKYAAKHGDPNQLSKEELKLLLQTEFPSLLKGPSTLDELFEELDKNGDGEVSFEEFQVLVKKISQ [E21H], the abundance fitness is -0.014 ± 0.081.

Take MSAKKSPEELKGIFEKYAAKYGDPNQLSKEELKLLLQTEFPSLLKGPSTLDELFEELDKNGDGEVSFEEFQVLVKKISQ [E21Y]: the abundance fitness was -0.058 ± 0.087.

For MSAKKSPEELKGIFEKYAAKWGDPNQLSKEELKLLLQTEFPSLLKGPSTLDELFEELDKNGDGEVSFEEFQVLVKKISQ [E21W], the abundance fitness was -0.236 ± 0.082.

Take MSAKKSPEELKGIFEKYAAKDGDPNQLSKEELKLLLQTEFPSLLKGPSTLDELFEELDKNGDGEVSFEEFQVLVKKISQ [E21D]: the abundance fitness is 0.074 ± 0.089.

Turning to MSAKKSPEELKGIFEKYAAKFGDPNQLSKEELKLLLQTEFPSLLKGPSTLDELFEELDKNGDGEVSFEEFQVLVKKISQ [E21F], the abundance fitness amounted to 0.085 ± 0.084.

Take MSAKKSPEELKGIFEKYAAKQGDPNQLSKEELKLLLQTEFPSLLKGPSTLDELFEELDKNGDGEVSFEEFQVLVKKISQ [E21Q]: the abundance fitness was -0.031 ± 0.078.

Regarding MSAKKSPEELKGIFEKYAAKRGDPNQLSKEELKLLLQTEFPSLLKGPSTLDELFEELDKNGDGEVSFEEFQVLVKKISQ [E21R], the abundance fitness was -0.104 ± 0.063.

With MSAKKSPEELKGIFEKYAAKPGDPNQLSKEELKLLLQTEFPSLLKGPSTLDELFEELDKNGDGEVSFEEFQVLVKKISQ [E21P], the abundance fitness is -0.35 ± 0.073.

Regarding MSAKKSPEELKGIFEKYAAKAGDPNQLSKEELKLLLQTEFPSLLKGPSTLDELFEELDKNGDGEVSFEEFQVLVKKISQ [E21A], the abundance fitness came to 0.003 ± 0.074.

Turning to MSAKKSPEELKGIFEKYAAKTGDPNQLSKEELKLLLQTEFPSLLKGPSTLDELFEELDKNGDGEVSFEEFQVLVKKISQ [E21T], the abundance fitness was -0.082 ± 0.071.

Regarding MSAKKSPEELKGIFEKYAAKCGDPNQLSKEELKLLLQTEFPSLLKGPSTLDELFEELDKNGDGEVSFEEFQVLVKKISQ [E21C], the abundance fitness was determined as 0.011 ± 0.092.

Turning to MSAKKSPEELKGIFEKYAAKIGDPNQLSKEELKLLLQTEFPSLLKGPSTLDELFEELDKNGDGEVSFEEFQVLVKKISQ [E21I], the abundance fitness was -0.027 ± 0.081.

For the variant MSAKKSPEELKGIFEKYAAKVGDPNQLSKEELKLLLQTEFPSLLKGPSTLDELFEELDKNGDGEVSFEEFQVLVKKISQ [E21V], the abundance fitness is -0.057 ± 0.07.

Consider MSAKKSPEELKGIFEKYAAKSGDPNQLSKEELKLLLQTEFPSLLKGPSTLDELFEELDKNGDGEVSFEEFQVLVKKISQ [E21S], for which the abundance fitness is -0.085 ± 0.064.

As to MSAKKSPEELKGIFEKYAAKEGDLNQLSKEELKLLLQTEFPSLLKGPSTLDELFEELDKNGDGEVSFEEFQVLVKKISQ [P24L], the abundance fitness is -0.113 ± 0.063.

For MSAKKSPEELKGIFEKYAAKEGDHNQLSKEELKLLLQTEFPSLLKGPSTLDELFEELDKNGDGEVSFEEFQVLVKKISQ [P24H], the abundance fitness was -0.031 ± 0.094.

As to MSAKKSPEELKGIFEKYAAKEGDSNQLSKEELKLLLQTEFPSLLKGPSTLDELFEELDKNGDGEVSFEEFQVLVKKISQ [P24S], the abundance fitness stood at 0.06 ± 0.065.

On to MSAKKSPEELKGIFEKYAAKEGDQNQLSKEELKLLLQTEFPSLLKGPSTLDELFEELDKNGDGEVSFEEFQVLVKKISQ [P24Q], for which the abundance fitness was 0.019 ± 0.089.

With MSAKKSPEELKGIFEKYAAKEGDVNQLSKEELKLLLQTEFPSLLKGPSTLDELFEELDKNGDGEVSFEEFQVLVKKISQ [P24V], the abundance fitness was -0.009 ± 0.071.

In the case of MSAKKSPEELKGIFEKYAAKEGDFNQLSKEELKLLLQTEFPSLLKGPSTLDELFEELDKNGDGEVSFEEFQVLVKKISQ [P24F], the abundance fitness was -0.197 ± 0.087.

As to MSAKKSPEELKGIFEKYAAKEGDINQLSKEELKLLLQTEFPSLLKGPSTLDELFEELDKNGDGEVSFEEFQVLVKKISQ [P24I], the abundance fitness came out at 0.024 ± 0.09.

Take MSAKKSPEELKGIFEKYAAKEGDGNQLSKEELKLLLQTEFPSLLKGPSTLDELFEELDKNGDGEVSFEEFQVLVKKISQ [P24G]: the abundance fitness was -0.031 ± 0.069.

As to MSAKKSPEELKGIFEKYAAKEGDCNQLSKEELKLLLQTEFPSLLKGPSTLDELFEELDKNGDGEVSFEEFQVLVKKISQ [P24C], the abundance fitness amounted to 0.029 ± 0.087.

MSAKKSPEELKGIFEKYAAKEGDANQLSKEELKLLLQTEFPSLLKGPSTLDELFEELDKNGDGEVSFEEFQVLVKKISQ [P24A]: the abundance fitness is -0.093 ± 0.069.

Regarding MSAKKSPEELKGIFEKYAAKEGDENQLSKEELKLLLQTEFPSLLKGPSTLDELFEELDKNGDGEVSFEEFQVLVKKISQ [P24E], the abundance fitness was -0.061 ± 0.086.

Take MSAKKSPEELKGIFEKYAAKEGDDNQLSKEELKLLLQTEFPSLLKGPSTLDELFEELDKNGDGEVSFEEFQVLVKKISQ [P24D]: the abundance fitness was -0.125 ± 0.086.

Take MSAKKSPEELKGIFEKYAAKEGDWNQLSKEELKLLLQTEFPSLLKGPSTLDELFEELDKNGDGEVSFEEFQVLVKKISQ [P24W]: the abundance fitness was -0.219 ± 0.084.

In the case of MSAKKSPEELKGIFEKYAAKEGDMNQLSKEELKLLLQTEFPSLLKGPSTLDELFEELDKNGDGEVSFEEFQVLVKKISQ [P24M], the abundance fitness is -0.066 ± 0.082.

With MSAKKSPEELKGIFEKYAAKEGDRNQLSKEELKLLLQTEFPSLLKGPSTLDELFEELDKNGDGEVSFEEFQVLVKKISQ [P24R], the abundance fitness is -0.007 ± 0.066.

As to MSAKKSPEELKGIFEKYAAKEGDKNQLSKEELKLLLQTEFPSLLKGPSTLDELFEELDKNGDGEVSFEEFQVLVKKISQ [P24K], the abundance fitness was 0.046 ± 0.082.

Take MSAKKSPEELKGIFEKYAAYEGDPNQLSKEELKLLLQTEFPSLLKGPSTLDELFEELDKNGDGEVSFEEFQVLVKKISQ [K20Y]: the abundance fitness is -0.112 ± 0.086.

As for MSAKKSPEELKGIFEKYAAKEGEPNQLSKEELKLLLQTEFPSLLKGPSTLDELFEELDKNGDGEVSFEEFQVLVKKISQ [D23E], the abundance fitness was -0.053 ± 0.088.
